Data set [1] concerns h-mtTFA (human mitochondrial transcription factor A) (Homo sapiens). Kind of data set: inhibition. The settings on record: 1 uM protein, HeLa extract excinuclease, 30 C.
Another data set has as its system HMG1. Briefly: inhibition. The settings on record: cisplatin 1,2-d(GpG) intrastrand crosslink at a defined site; 1 uM protein; 20% at 0.5 uM; HeLa extract excinuclease, 30 C; EMSA also run at 1-8 uM but result not stated. On the technique in general: In EMSA bound probe runs differently from free probe, usually more slowly.

“156 bp DNA with site-specific cisplatin 1,2-d(GpG) intrastrand adduct”: the activity (% inhibition of repair) in data set [1] (cisplatin 1,2-d(GpG) intrastrand crosslink at a defined site, 95% at 0.5 uM, 8 mM MgCl2, 2 mM ATP) came out at 100; in the data set on HMG1, 40.
As for “156 bp DNA with site-specific cisplatin 1,3-d(GpTpG) intrastrand adduct”, the activity (% inhibition of repair) in data set [1] (cisplatin 1,3-d(GpTpG) intrastrand crosslink at a defined site, 40% at 0.5 uM) was determined as 75.

For the origin of these results see US5705334.
